Changes are numbered by the printed parent chain. In names and notes the source's numbering stands.
T1: human IL-33 (R&D Systems, #3625-IL-010/CF) (human, UniProt O95760 112-270)
T1 sequence (looked up): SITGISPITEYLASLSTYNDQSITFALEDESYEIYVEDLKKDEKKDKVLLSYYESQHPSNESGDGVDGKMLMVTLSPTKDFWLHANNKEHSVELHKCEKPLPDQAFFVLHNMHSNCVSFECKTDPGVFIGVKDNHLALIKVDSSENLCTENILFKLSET

T2: cynomolgus monkey IL-33 expressed with a C-terminal hexahistidine tag (cynomolgus monkey)
T2 construct: also called MfIL-33-6His; Mf-IL-33-6His
T2 chain: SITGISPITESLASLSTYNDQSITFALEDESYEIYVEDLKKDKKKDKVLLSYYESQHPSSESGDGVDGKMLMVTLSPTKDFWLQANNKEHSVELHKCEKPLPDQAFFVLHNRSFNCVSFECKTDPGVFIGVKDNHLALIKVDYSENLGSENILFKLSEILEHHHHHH

B1: H4H9659P (antibody, human IgG4, V domains shown)
VH: QVQLVQSGAEVKKPGASVKVSCKASGYTFNSYGISWVRQAPGQGLEWMGWISSHNGNSHYVQKFQGRVSMTTDTSTSTAYMELRSLRSDDTAVYYCARHSYTTSWYGGFDYWGQGTLVTVSS
VL: DIQMTQSPSSVSASVGDRVTITCRASQGFSSWLAWYQQKPGKAPQLLIYAASSLQSGVPSRFSGSGSGSDFTLTISSLQPEDFATYYCQQANSFPLTFGGGTKVEIK
notes: Human IgG4 Fc (H4H)
B2: H4H9675P (antibody, human IgG4, V domains shown)
VH: EVQLVESGGNLEQPGGSLRLSCTASGFTFSRSAMNWVRRAPGKGLEWVSGISGSGGRTYYADSVKGRFTISRDNSKNTLYLQMNSLSAEDTAAYYCAKDSYTTSWYGGMDVWGHGTTVTVSS
VL: B1 VL with F29I, S30F, Q45K, S69T, T85I, F94V, L96I, G100Q, K103R, V104L
notes: Human IgG4 Fc (H4H)
B3: H4H9671P (antibody, human IgG4, V domains shown)
VH: EVQLVESGGGLVQPGGSLRLSCAASGFTLRSYFMTWVRQVPGKGLEGVSAISGISGGTYYTDSVKGRFTISRDNSKNTLFLQMNSLRAEDTAVYFCARTVYSSSYYGGFQHWGQGTLVTVSS
VL: B1 VL with A13V, F29I, Q45K, A50V, S69T, A91T
notes: Human IgG4 Fc (H4H)
B4: H4H9665P (antibody, human IgG4, V domains shown)
VH: EVQLVESGGGLVQPGGSLRLSCAASGFTFSNYAMTWVRQAPGKGLEWVSTISGSGDNTYYADSVQGRFTISRGHSKNTLYLQMNSLRAEDTAVYYCAKPTYSRSWYGAFDFWGQGTMVTVSS
VL: B1 VL with F29I, S53R, S63W, S69T, S93N, L96F, G100P, E105D
notes: Human IgG4 Fc (H4H)
B5: H4H9667P (antibody, human IgG4, V domains shown)
VH: EVQLVESGGGLVQPGGSLRLSCAASGFTFSTYSMHWVRQAPGKGLEYVSTINNNGDTTYYADSVKGRFTISRDNSKNTLYLQLGSLRPEDMAVYYCARQTYTSSWYGGFDSWGQGTLVTVSS
VL: B1 VL with F29I, S30T, Q45K, S53N, S69T, S76T, F94L, L96F, G100P, E105D
notes: Human IgG4 Fc (H4H)
B6: H4H9664P (antibody, human IgG4, V domains shown)
VH: QVQLVESGGGVVQPGRSLRLSCAASGFTFSSYGLHWVRQSPGKGLEWVALISYDGSNKYYADSVKGRFTISRDNSKNTLYLQMNSLRPEDTAGYFCAKSLYTTSWYGGFDYWGQGTLVTVSS
VL: B1 VL with F29I, S30R, Q45N, S69T, L96P, G100P, E105D
notes: Human IgG4 Fc (H4H)

Biological target: T1, human IL-33 (R&D Systems, …)
Assay: cell-based or functional assay

| Binder | IC50, blocking of human basophil degranulation induced by 100 pM human IL-33, donor 655687 [M] | IC50, blocking of human basophil degranulation induced by 100 pM human IL-33, donor 655688 [M] |
| --- | --- | --- |
| B1 | 5.79e-10 | 4.47e-10 |
| B2 | 1.33e-10 | 9.71e-11 |

Biological target: T1, human IL-33 (R&D Systems, …)
Assay: cell-based or functional assay
Remark: another data set of the same source

| Binder | IC50, blocking of IFN-γ release from human PBMC induced by 260 pM hIL-33, donor #603486 [M] | IC50, blocking of IFN-γ release from human PBMC induced by 260 pM hIL-33, donor #603487 [M] |
| --- | --- | --- |
| B1 | 1.25e-09 | 2.71e-09 |
| B3 | 2.97e-09 | 8.62e-09 |
| B4 | 1.04e-08 | 2.34e-08 |
| B5 | 8.07e-09 | 1.88e-08 |
| B2 | 1.75e-10 | 4.71e-10 |
| B6 | 3.98e-09 | 6.08e-09 |

Biological target: T1, human IL-33 (R&D Systems, …)
Assay: SPR 25C, pH6.0 chase, mAb captured
Protocol: (§1) Equilibrium dissociation constants (KD values) for IL-33 binding to purified anti-IL-33 monoclonal antibodies were determined using a real-time surface plasmon resonance biosensor using a Biacore 4000 instrument. The Biacore sensor surface was first derivatized by amine coupling with either a polyclonal rabbit anti-mouse antibody (GE, # BR-1008-38) or with a monoclonal mouse anti-human Fc antibody (GE, # BR-1008-39) to capture anti-IL-33 monoclonal antibodies expressed with mouse or with human IgG4 constant regions, respectively. All Biacore binding studies were performed in 0.01M ADA pH 7.4, 0.15M NaCl, 3 mM EDTA, and 0.05% v/v Surfactant Tween-20 (ABS-ET running buffer). […] Association of either hIL-33 or MfIL-33-6His to the captured monoclonal antibody was monitored for 4 minutes and their dissociation in ABS-ET running buffer was monitored for 10 minutes. The effect of reduced pH on the binding of each anti-IL-33 antibody to either hIL-33 or MfIL-33-6His was studied using an in-line pH chase assay format in 0.01M ADA pH 6.0, 0.15M NaCl, 3 mM EDTA, and 0.05% v/v Surfactant Tween-20 (ABS-ET pH6 buffer). To achieve this, association of either hIL-33 or MfIL-33-6His to the captured monoclonal antibody was monitored for 4 minutes in ABS-ET running buffer. Following a 30 second dissociation of either hIL-33 or MfIL-33-6His in ABS-ET running buffer, ABS-ET pH6 buffer was injected for 3 minutes, and the analyte dissociation under the low-pH conditions was measured. All the binding kinetic experiments were performed at both 25° C. and 37° C. Kinetic association (kₐ) and dissociation (kd) constants were determined by fitting the real-time sensorgrams to a 1:1 binding model using Scrubber 2.0c curve fitting software. Binding dissociation equilibrium constants (KD) and dissociative half-lives (t½) were calculated from the kinetic rate constants as: […]

| Binder | koff [s⁻¹] | t½ [min] | t½ Ratio (pH 7.4/pH 6.0) |
| --- | --- | --- | --- |
| B1 | 0.000664 | 17 | 3.9 |
| B3 | 0.00162 | 7 | 4.6 |
| B4 | 0.00212 | 5 | 4.5 |
| B5 | 0.000566 | 20 | 2.2 |
| B2 | 0.00111 | 10 | 4.3 |
| B6 | 0.000823 | 14 | 3.2 |

Biological target: T2, cynomolgus monkey IL-33 expressed with …
Assay: SPR 25C, pH6.0 chase, mAb captured
Protocol: as §1

| Binder | koff [s⁻¹] | t½ [min] | t½ Ratio (pH 7.4/pH 6.0) |
| --- | --- | --- | --- |
| B1 | 0.000123 | 94 | 0.3 |
| B3 | 0.00161 | 7 | 1.1 |
| B4 | 0.000753 | 15 | 1.3 |
| B5 | 0.000696 | 17 | 0.7 |
| B2 | 0.00156 | 7 | 1.2 |
| B6 | 0.00048 | 24 | 0.3 |

Biological target: T2, cynomolgus monkey IL-33 expressed with …
Assay: competition ELISA, 150 pM MfIL-33-6His on coated hST2-hFc
Protocol: The ability of anti-IL-33 antibodies to block either human IL-33 (hIL-33) or cynomologus monkey IL-33 binding to the human ST2 receptor was measured using a competition sandwich ELISA. […] The antibody/IL-33 mixtures were incubated for 1 hour at room temperature before they were transferred to the hST2-hFc-coated microtiter plates. After incubating for 1 hour at room temperature, the wells were then washed, and plate-bound biotin-hIL-33 was detected with streptavidin conjugated with horse-radish peroxidase (HRP) (Thermo Scientific, Cat # N200), and plate-bound MfIL-33-6His was detected with a HRP conjugated anti-His monoclonal antibody (Qiagen, #34460). All samples were developed with a TMB solution (BD biosciences, #51-2607KC) to produce a colorimetric reaction and then quenched by acidification with 1M sulfuric acid before measuring absorbance at 450 nm on a Victor X5 plate reader. Data analysis was performed using a sigmoidal dose-response model within Prism™ software. […] Percent blockade was calculated as the ratio of the reduction in signal observed in the presence of antibody relative to the difference between the signal with IL-33 alone and background (signal from HRP-conjugated secondary antibody or streptavidin alone). The absorbance measured for the constant concentration of biotin-hIL-33 or MfIL-33-6His alone is defined as 0% blocking and the absorbance measured for no added IL-33 is defined as 100% blocking.

| Binder | % Maximum blocking [%] | IC50 [nM] |
| --- | --- | --- |
| B1 | 92 | 0.6 |
| B3 | 62 | 0.58 |
| B4 | 81 | 0.42 |
| B5 | 72 | 4.1 |
| B2 | 72 | 1.5 |
| B6 | 67 | 3.8 |

Biological target: T2, cynomolgus monkey IL-33 expressed with …
Assay: BLI; captured MfIL-33-6His, mAb-1 step with Buffer
Protocol: Binding competition between a panel of different anti-IL-33 monoclonal antibodies was determined using a real time, label-free bio-layer interferometry assay on an Octet® HTX biosensor (ForteBio, A Division of Pall Life Sciences). The experiment was performed at 25° C. using a buffer of 0.01M HEPES pH7.4, 0.15M NaCl, 3 mM EDTA, 0.05% v/v Surfactant Tween-20, and 0.1 mg/ml BSA (HBS-ET kinetics buffer) with the plate shaking at a speed of 1000 rpm. […] The antigen-captured biosensors were then saturated with a first anti-IL-33 monoclonal antibody (subsequently referred to as mAb-1) by immersion into wells containing 50 μg/mL solution of mAb-1 for 5 minutes. The biosensors were then dipped into wells containing a 50 μg/mL solution of a second anti-IL-33 monoclonal antibody (subsequently referred to as mAb-2) for 4 minutes. The biosensors were washed in HBS-ET kinetics buffer in between every step of the experiment. The real-time binding response was monitored during the experiment, and the maximum binding response for each binding step was recorded. The response of mAb-2 binding to MfIL-33-6His pre-complexed with mAb-1 was measured, and competitive/non-competitive behavior of different anti-IL-33 monoclonal antibodies with respect to each other was determined.

| Binder | mAb-2 Binding to the Pre-complex of mAb-1 & MfIL-33-6xHis [nm] |
| --- | --- |
| B1 | 0.31 |
| B3 | 0.29 |
| B4 | 0.33 |
| B5 | 0.3 |
| B2 | 0.31 |
| B6 | 0.31 |

— patent US20160362487A1 (Regeneron, published 2016)
